What all share (experiment): cell-based or functional assay
For one experiment, the target named is human GLP-1 receptor (human, UniProt P43220 24-463).
Another experiment deals with human glucagon receptor (human, UniProt P47871 26-477).
The target in a further experiment is T1, human GIP receptor (human, UniProt P48546 22-466).
T1 sequence (looked up): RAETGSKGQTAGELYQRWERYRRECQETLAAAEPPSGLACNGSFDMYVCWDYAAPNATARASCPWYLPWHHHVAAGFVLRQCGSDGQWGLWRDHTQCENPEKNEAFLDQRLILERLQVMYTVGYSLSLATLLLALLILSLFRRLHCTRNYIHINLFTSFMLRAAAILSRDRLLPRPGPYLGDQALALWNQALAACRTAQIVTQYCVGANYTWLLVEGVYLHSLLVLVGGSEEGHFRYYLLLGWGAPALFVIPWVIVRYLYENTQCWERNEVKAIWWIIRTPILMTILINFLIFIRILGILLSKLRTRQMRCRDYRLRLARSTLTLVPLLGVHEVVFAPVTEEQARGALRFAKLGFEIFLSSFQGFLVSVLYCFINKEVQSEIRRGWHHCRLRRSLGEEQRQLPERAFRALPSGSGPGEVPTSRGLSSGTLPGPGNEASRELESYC

*1 amine or outer side, *2 acyl side, *3 side chain or, on linkers, in order; H or OH if unused. Where no end group is shown, it is not given here. Side-chain parts run from the residue outwards. [ ]: non-standard residue; d: D form. The star is where a group is joined. γGlu = O=C(O)[C@H](CCC(=O)[*:2])N[*:1]; Stearoyl = CCCCCCCCCCCCCCCCCC(=O)*; Palmitoyl = CCCCCCCCCCCCCCCC(=O)*; Aib = CC(C)(N)C(=O)O

Sequence of human glucagon receptor (P47871 26-477): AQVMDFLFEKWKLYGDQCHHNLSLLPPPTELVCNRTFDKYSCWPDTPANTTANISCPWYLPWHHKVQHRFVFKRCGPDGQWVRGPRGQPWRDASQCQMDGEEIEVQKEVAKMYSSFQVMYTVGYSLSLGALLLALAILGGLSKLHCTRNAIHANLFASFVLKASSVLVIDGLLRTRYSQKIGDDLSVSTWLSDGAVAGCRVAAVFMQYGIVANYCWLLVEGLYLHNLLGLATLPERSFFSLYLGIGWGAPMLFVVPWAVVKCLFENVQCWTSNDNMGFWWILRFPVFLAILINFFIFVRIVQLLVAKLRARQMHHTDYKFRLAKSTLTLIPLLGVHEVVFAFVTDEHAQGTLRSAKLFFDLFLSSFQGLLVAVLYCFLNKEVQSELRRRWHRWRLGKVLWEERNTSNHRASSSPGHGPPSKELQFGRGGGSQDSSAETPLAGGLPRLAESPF

B1: exendin-4 peptide analogue SEQ ID NO: 63 (peptide)
peptide: Y[Aib]EGTFTSDLSKQK([γGlu-Palmitoyl])DKRAAQDFIEWLKAGGPSSGAPPPS-NH2
modifications: N-terminus assumed
SMILES: CCCCCCCCCCCCCCCC(=O)N[C@@H](CCC(=O)NCCCC[C@H](NC(=O)[C@H](CCC(N)=O)NC(=O)[C@H](CCCCN)NC(=O)[C@H](CO)NC(=O)[C@H](CC(C)C)NC(=O)[C@H](CC(=O)O)NC(=O)[C@H](CO)NC(=O)[C@@H](NC(=O)[C@H](Cc1ccccc1)NC(=O)[C@@H](NC(=O)CNC(=O)[C@H](CCC(=O)O)NC(=O)C(C)(C)NC(=O)[C@@H](N)Cc1ccc(O)cc1)[C@@H](C)O)[C@@H](C)O)C(=O)N[C@@H](CC(=O)O)C(=O)N[C@@H](CCCCN)C(=O)N[C@@H](CCCNC(=N)N)C(=O)N[C@@H](C)C(=O)N[C@@H](C)C(=O)N[C@@H](CCC(N)=O)C(=O)N[C@@H](CC(=O)O)C(=O)N[C@@H](Cc1ccccc1)C(=O)N[C@H](C(=O)N[C@@H](CCC(=O)O)C(=O)N[C@@H](Cc1c[nH]c2ccccc12)C(=O)N[C@@H](CC(C)C)C(=O)N[C@@H](CCCCN)C(=O)N[C@@H](C)C(=O)NCC(=O)NCC(=O)N1CCC[C@H]1C(=O)N[C@@H](CO)C(=O)N[C@@H](CO)C(=O)NCC(=O)N[C@@H](C)C(=O)N1CCC[C@H]1C(=O)N1CCC[C@H]1C(=O)N1CCC[C@H]1C(=O)N[C@@H](CO)C(N)=O)[C@@H](C)CC)C(=O)O
B1: the “EC50 hGLP-1 R” value in the experiment with human GLP-1 receptor came to 0.006 nM. Moreover, the “EC50 hGLUC R” value in the experiment with human glucagon receptor was found to be 1.67 nM. For the same molecule, the “EC50 hGIP R” value with human GIP receptor is 0.0119 nM.

B2: exendin-4 peptide analogue SEQ ID NO: 11 (peptide)
peptide: Y[Aib]QGTFTSDLSIQK([γGlu-Palmitoyl])EKR[Aib]A[Aib]EFIEWLKNTGPSSGAPPPS-NH2
modifications: N-terminus assumed
SMILES: CCCCCCCCCCCCCCCC(=O)N[C@@H](CCC(=O)NCCCC[C@H](NC(=O)[C@H](CCC(N)=O)NC(=O)[C@@H](NC(=O)[C@H](CO)NC(=O)[C@H](CC(C)C)NC(=O)[C@H](CC(=O)O)NC(=O)[C@H](CO)NC(=O)[C@@H](NC(=O)[C@H](Cc1ccccc1)NC(=O)[C@@H](NC(=O)CNC(=O)[C@H](CCC(N)=O)NC(=O)C(C)(C)NC(=O)[C@@H](N)Cc1ccc(O)cc1)[C@@H](C)O)[C@@H](C)O)[C@@H](C)CC)C(=O)N[C@@H](CCC(=O)O)C(=O)N[C@@H](CCCCN)C(=O)N[C@@H](CCCNC(=N)N)C(=O)NC(C)(C)C(=O)N[C@@H](C)C(=O)NC(C)(C)C(=O)N[C@@H](CCC(=O)O)C(=O)N[C@@H](Cc1ccccc1)C(=O)N[C@H](C(=O)N[C@@H](CCC(=O)O)C(=O)N[C@@H](Cc1c[nH]c2ccccc12)C(=O)N[C@@H](CC(C)C)C(=O)N[C@@H](CCCCN)C(=O)N[C@@H](CC(N)=O)C(=O)N[C@H](C(=O)NCC(=O)N1CCC[C@H]1C(=O)N[C@@H](CO)C(=O)N[C@@H](CO)C(=O)NCC(=O)N[C@@H](C)C(=O)N1CCC[C@H]1C(=O)N1CCC[C@H]1C(=O)N1CCC[C@H]1C(=O)N[C@@H](CO)C(N)=O)[C@@H](C)O)[C@@H](C)CC)C(=O)O
Consider B2, for which the “EC50 hGLP-1 R” value with human GLP-1 receptor was 0.0038 nM. Moreover, in the experiment with human glucagon receptor, the “EC50 hGLUC R” value was 0.0669 nM. Moreover, the “EC50 hGIP R” value in the experiment with human GIP receptor was determined as 0.0144 nM.

B3: exendin-4 peptide analogue SEQ ID NO: 12 (peptide)
peptide: Y[Aib]QGTFTSDLSIQK([γGlu-Palmitoyl])EKAAA[Aib]EFIEWLKNTGPSSGAPPPS-NH2
modifications: N-terminus assumed
SMILES: CCCCCCCCCCCCCCCC(=O)N[C@@H](CCC(=O)NCCCC[C@H](NC(=O)[C@H](CCC(N)=O)NC(=O)[C@@H](NC(=O)[C@H](CO)NC(=O)[C@H](CC(C)C)NC(=O)[C@H](CC(=O)O)NC(=O)[C@H](CO)NC(=O)[C@@H](NC(=O)[C@H](Cc1ccccc1)NC(=O)[C@@H](NC(=O)CNC(=O)[C@H](CCC(N)=O)NC(=O)C(C)(C)NC(=O)[C@@H](N)Cc1ccc(O)cc1)[C@@H](C)O)[C@@H](C)O)[C@@H](C)CC)C(=O)N[C@@H](CCC(=O)O)C(=O)N[C@@H](CCCCN)C(=O)N[C@@H](C)C(=O)N[C@@H](C)C(=O)N[C@@H](C)C(=O)NC(C)(C)C(=O)N[C@@H](CCC(=O)O)C(=O)N[C@@H](Cc1ccccc1)C(=O)N[C@H](C(=O)N[C@@H](CCC(=O)O)C(=O)N[C@@H](Cc1c[nH]c2ccccc12)C(=O)N[C@@H](CC(C)C)C(=O)N[C@@H](CCCCN)C(=O)N[C@@H](CC(N)=O)C(=O)N[C@H](C(=O)NCC(=O)N1CCC[C@H]1C(=O)N[C@@H](CO)C(=O)N[C@@H](CO)C(=O)NCC(=O)N[C@@H](C)C(=O)N1CCC[C@H]1C(=O)N1CCC[C@H]1C(=O)N1CCC[C@H]1C(=O)N[C@@H](CO)C(N)=O)[C@@H](C)O)[C@@H](C)CC)C(=O)O
In the case of B3, in the experiment with human GLP-1 receptor, the “EC50 hGLP-1 R” value amounted to 0.0055 nM. The “EC50 hGLUC R” value with human glucagon receptor stood at 0.139 nM. For the same molecule, the “EC50 hGIP R” value in the experiment with human GIP receptor came to 0.008 nM.

B4: exendin-4 peptide analogue SEQ ID NO: 66 (peptide)
peptide: Y[Aib]QGTFTSDLSKQK([γGlu-Palmitoyl])DSRAAQDFIEWLKAGGPSSGAPPPS-NH2
modifications: N-terminus assumed
SMILES: CCCCCCCCCCCCCCCC(=O)N[C@@H](CCC(=O)NCCCC[C@H](NC(=O)[C@H](CCC(N)=O)NC(=O)[C@H](CCCCN)NC(=O)[C@H](CO)NC(=O)[C@H](CC(C)C)NC(=O)[C@H](CC(=O)O)NC(=O)[C@H](CO)NC(=O)[C@@H](NC(=O)[C@H](Cc1ccccc1)NC(=O)[C@@H](NC(=O)CNC(=O)[C@H](CCC(N)=O)NC(=O)C(C)(C)NC(=O)[C@@H](N)Cc1ccc(O)cc1)[C@@H](C)O)[C@@H](C)O)C(=O)N[C@@H](CC(=O)O)C(=O)N[C@@H](CO)C(=O)N[C@@H](CCCNC(=N)N)C(=O)N[C@@H](C)C(=O)N[C@@H](C)C(=O)N[C@@H](CCC(N)=O)C(=O)N[C@@H](CC(=O)O)C(=O)N[C@@H](Cc1ccccc1)C(=O)N[C@H](C(=O)N[C@@H](CCC(=O)O)C(=O)N[C@@H](Cc1c[nH]c2ccccc12)C(=O)N[C@@H](CC(C)C)C(=O)N[C@@H](CCCCN)C(=O)N[C@@H](C)C(=O)NCC(=O)NCC(=O)N1CCC[C@H]1C(=O)N[C@@H](CO)C(=O)N[C@@H](CO)C(=O)NCC(=O)N[C@@H](C)C(=O)N1CCC[C@H]1C(=O)N1CCC[C@H]1C(=O)N1CCC[C@H]1C(=O)N[C@@H](CO)C(N)=O)[C@@H](C)CC)C(=O)O
B4: in the experiment with human GLP-1 receptor, the “EC50 hGLP-1 R” value turned out to be 0.0036 nM. For the same molecule, the “EC50 hGLUC R” value with human glucagon receptor was 0.0052 nM. Also, in the experiment with human GIP receptor, the “EC50 hGIP R” value was determined as 0.0826 nM.

B5: exendin-4 peptide analogue SEQ ID NO: 64 (peptide)
peptide: Y[Aib]EGTFTSDLSIQK([γGlu-Stearoyl])EERAVRLFIEWLKAGGPSSGAPPPS-NH2
modifications: N-terminus assumed
SMILES: CCCCCCCCCCCCCCCCCC(=O)N[C@@H](CCC(=O)NCCCC[C@H](NC(=O)[C@H](CCC(N)=O)NC(=O)[C@@H](NC(=O)[C@H](CO)NC(=O)[C@H](CC(C)C)NC(=O)[C@H](CC(=O)O)NC(=O)[C@H](CO)NC(=O)[C@@H](NC(=O)[C@H](Cc1ccccc1)NC(=O)[C@@H](NC(=O)CNC(=O)[C@H](CCC(=O)O)NC(=O)C(C)(C)NC(=O)[C@@H](N)Cc1ccc(O)cc1)[C@@H](C)O)[C@@H](C)O)[C@@H](C)CC)C(=O)N[C@@H](CCC(=O)O)C(=O)N[C@@H](CCC(=O)O)C(=O)N[C@@H](CCCNC(=N)N)C(=O)N[C@@H](C)C(=O)N[C@H](C(=O)N[C@@H](CCCNC(=N)N)C(=O)N[C@@H](CC(C)C)C(=O)N[C@@H](Cc1ccccc1)C(=O)N[C@H](C(=O)N[C@@H](CCC(=O)O)C(=O)N[C@@H](Cc1c[nH]c2ccccc12)C(=O)N[C@@H](CC(C)C)C(=O)N[C@@H](CCCCN)C(=O)N[C@@H](C)C(=O)NCC(=O)NCC(=O)N1CCC[C@H]1C(=O)N[C@@H](CO)C(=O)N[C@@H](CO)C(=O)NCC(=O)N[C@@H](C)C(=O)N1CCC[C@H]1C(=O)N1CCC[C@H]1C(=O)N1CCC[C@H]1C(=O)N[C@@H](CO)C(N)=O)[C@@H](C)CC)C(C)C)C(=O)O
On to B5, for which the “EC50 hGLP-1 R” value with human GLP-1 receptor was determined as 0.0102 nM. For the same molecule, in the experiment with human glucagon receptor, the “EC50 hGLUC R” value was 75.1 nM. For the same molecule, in the experiment with human GIP receptor, the “EC50 hGIP R” value came to 0.0096 nM.

B6: exendin-4 peptide analogue SEQ ID NO: 62 (peptide)
peptide: Y[Aib]EGTFTSDLSIQK([γGlu-Stearoyl])EEEAVKLFIEWLKAGGPSSGAPPPS-NH2
modifications: N-terminus assumed
SMILES: CCCCCCCCCCCCCCCCCC(=O)N[C@@H](CCC(=O)NCCCC[C@H](NC(=O)[C@H](CCC(N)=O)NC(=O)[C@@H](NC(=O)[C@H](CO)NC(=O)[C@H](CC(C)C)NC(=O)[C@H](CC(=O)O)NC(=O)[C@H](CO)NC(=O)[C@@H](NC(=O)[C@H](Cc1ccccc1)NC(=O)[C@@H](NC(=O)CNC(=O)[C@H](CCC(=O)O)NC(=O)C(C)(C)NC(=O)[C@@H](N)Cc1ccc(O)cc1)[C@@H](C)O)[C@@H](C)O)[C@@H](C)CC)C(=O)N[C@@H](CCC(=O)O)C(=O)N[C@@H](CCC(=O)O)C(=O)N[C@@H](CCC(=O)O)C(=O)N[C@@H](C)C(=O)N[C@H](C(=O)N[C@@H](CCCCN)C(=O)N[C@@H](CC(C)C)C(=O)N[C@@H](Cc1ccccc1)C(=O)N[C@H](C(=O)N[C@@H](CCC(=O)O)C(=O)N[C@@H](Cc1c[nH]c2ccccc12)C(=O)N[C@@H](CC(C)C)C(=O)N[C@@H](CCCCN)C(=O)N[C@@H](C)C(=O)NCC(=O)NCC(=O)N1CCC[C@H]1C(=O)N[C@@H](CO)C(=O)N[C@@H](CO)C(=O)NCC(=O)N[C@@H](C)C(=O)N1CCC[C@H]1C(=O)N1CCC[C@H]1C(=O)N1CCC[C@H]1C(=O)N[C@@H](CO)C(N)=O)[C@@H](C)CC)C(C)C)C(=O)O
B6: the “EC50 hGLP-1 R” value with human GLP-1 receptor came to 0.0076 nM. In addition, the “EC50 hGLUC R” value in the experiment with human glucagon receptor is greater than 1000 nM. Also, in the experiment with human GIP receptor, the “EC50 hGIP R” value was 0.0067 nM.

Source of the values: patent US20140213513A1 (Sanofi, priority 2012, published 2014).
